Results on 18 molecules are retold here after patent publication US20160108091A1 (Novartis, published 2016).

Bridges are numbered along the chain shown (N, C = ends). [ ]: non-standard residue; d: D form. The star is where a group is joined. pGlu = O=C1CC[C@@H](C(=O)O)N1; NHPhenethyl = c1ccc(CCN*)cc1; d(hCys) = N[C@H](CCS)C(=O)O; dNle = CCCC[C@@H](N)C(=O)O; hCys = N[C@@H](CCS)C(=O)O; Nle = CCCC[C@H](N)C(=O)O

T1: human APJ receptor (hAPJ) (human, UniProt P35414 1-380)
T1 sequence (looked up): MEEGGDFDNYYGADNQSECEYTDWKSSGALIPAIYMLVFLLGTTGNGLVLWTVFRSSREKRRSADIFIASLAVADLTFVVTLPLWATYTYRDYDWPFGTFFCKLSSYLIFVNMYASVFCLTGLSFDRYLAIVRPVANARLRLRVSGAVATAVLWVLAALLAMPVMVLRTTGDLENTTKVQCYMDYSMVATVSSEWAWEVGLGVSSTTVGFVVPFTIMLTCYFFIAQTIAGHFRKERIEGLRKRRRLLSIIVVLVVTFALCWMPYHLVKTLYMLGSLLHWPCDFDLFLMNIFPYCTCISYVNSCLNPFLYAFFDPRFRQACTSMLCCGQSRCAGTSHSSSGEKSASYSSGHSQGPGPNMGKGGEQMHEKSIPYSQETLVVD

B1: Ac-c*-R-P-R-L-S-c*-K-G-P-Nle-P-F-OH (peptide)
peptide: Ac-[dC]RPRLS[dC]KGP[Nle]PF-OH
modifications: disulfide 1-7
SMILES: CCCC[C@H](NC(=O)[C@@H]1CCCN1C(=O)CNC(=O)[C@H](CCCCN)NC(=O)[C@H]1CSSC[C@@H](NC(C)=O)C(=O)N[C@@H](CCCNC(=N)N)C(=O)N2CCC[C@H]2C(=O)N[C@@H](CCCNC(=N)N)C(=O)N[C@@H](CC(C)C)C(=O)N[C@@H](CO)C(=O)N1)C(=O)N1CCC[C@H]1C(=O)N[C@@H](Cc1ccccc1)C(=O)O
B2: Ac-C*-R-P-R-L-S-C*-K-G-P-Nle-NH(Phenethyl) (peptide)
peptide: Ac-CRPRLSCKGP[Nle]-NHPhenethyl
modifications: disulfide 1-7
SMILES: CCCC[C@H](NC(=O)[C@@H]1CCCN1C(=O)CNC(=O)[C@H](CCCCN)NC(=O)[C@@H]1CSSC[C@H](NC(C)=O)C(=O)N[C@@H](CCCNC(=N)N)C(=O)N2CCC[C@H]2C(=O)N[C@@H](CCCNC(=N)N)C(=O)N[C@@H](CC(C)C)C(=O)N[C@@H](CO)C(=O)N1)C(=O)NCCc1ccccc1
B3: Ac-(D-hC)*-R-P-R-L-S-(D-hC)*-K-G-P-Nle-P-F-OH (peptide)
peptide: Ac-[d(hCys)]RPRLS[d(hCys)]KGP[Nle]PF-OH
modifications: disulfide 1-7
SMILES: CCCC[C@H](NC(=O)[C@@H]1CCCN1C(=O)CNC(=O)[C@H](CCCCN)NC(=O)[C@H]1CCSSCC[C@@H](NC(C)=O)C(=O)N[C@@H](CCCNC(=N)N)C(=O)N2CCC[C@H]2C(=O)N[C@@H](CCCNC(=N)N)C(=O)N[C@@H](CC(C)C)C(=O)N[C@@H](CO)C(=O)N1)C(=O)N1CCC[C@H]1C(=O)N[C@@H](Cc1ccccc1)C(=O)O
B4: Ac-(D-hC)*-R-P-R-L-S-hC*-K-G-P-Nle-P-F-OH (peptide)
peptide: Ac-[d(hCys)]RPRLS[hCys]KGP[Nle]PF-OH
modifications: disulfide 1-7
SMILES: CCCC[C@H](NC(=O)[C@@H]1CCCN1C(=O)CNC(=O)[C@H](CCCCN)NC(=O)[C@@H]1CCSSCC[C@@H](NC(C)=O)C(=O)N[C@@H](CCCNC(=N)N)C(=O)N2CCC[C@H]2C(=O)N[C@@H](CCCNC(=N)N)C(=O)N[C@@H](CC(C)C)C(=O)N[C@@H](CO)C(=O)N1)C(=O)N1CCC[C@H]1C(=O)N[C@@H](Cc1ccccc1)C(=O)O
B5: pE-R-C*-R-L-S-C*-K-A-P-(D-Nle)-a-f-OH (peptide)
peptide: [pGlu]RCRLSCKAP[dNle][dA][dF]-OH
modifications: disulfide 3-7
SMILES: CCCC[C@@H](NC(=O)[C@@H]1CCCN1C(=O)[C@H](C)NC(=O)[C@H](CCCCN)NC(=O)[C@@H]1CSSC[C@H](NC(=O)[C@H](CCCNC(=N)N)NC(=O)[C@@H]2CCC(=O)N2)C(=O)N[C@@H](CCCNC(=N)N)C(=O)N[C@@H](CC(C)C)C(=O)N[C@@H](CO)C(=O)N1)C(=O)N[C@H](C)C(=O)N[C@H](Cc1ccccc1)C(=O)O
B6: pE-R-C*-R-L-S-C*-K-G-P-(D-Nle)-a-f-OH (peptide)
peptide: [pGlu]RCRLSCKGP[dNle][dA][dF]-OH
modifications: disulfide 3-7
SMILES: CCCC[C@@H](NC(=O)[C@@H]1CCCN1C(=O)CNC(=O)[C@H](CCCCN)NC(=O)[C@@H]1CSSC[C@H](NC(=O)[C@H](CCCNC(=N)N)NC(=O)[C@@H]2CCC(=O)N2)C(=O)N[C@@H](CCCNC(=N)N)C(=O)N[C@@H](CC(C)C)C(=O)N[C@@H](CO)C(=O)N1)C(=O)N[C@H](C)C(=O)N[C@H](Cc1ccccc1)C(=O)O
B7: pE-R-C*-R-L-S-C*-K-G-P-(D-Nle)-NH2 (peptide)
peptide: [pGlu]RCRLSCKGP[dNle]-NH2
modifications: disulfide 3-7
SMILES: CCCC[C@@H](NC(=O)[C@@H]1CCCN1C(=O)CNC(=O)[C@H](CCCCN)NC(=O)[C@@H]1CSSC[C@H](NC(=O)[C@H](CCCNC(=N)N)NC(=O)[C@@H]2CCC(=O)N2)C(=O)N[C@@H](CCCNC(=N)N)C(=O)N[C@@H](CC(C)C)C(=O)N[C@@H](CO)C(=O)N1)C(N)=O
B8: Ac-(D-hC)*-R-P-R-L-S-(hC)*-K-G-P-f-a-f-OH (peptide)
peptide: Ac-[d(hCys)]RPRLS[hCys]KGP[dF][dA][dF]-OH
modifications: disulfide 1-7
SMILES: CC(=O)N[C@@H]1CCSSCC[C@@H](C(=O)N[C@@H](CCCCN)C(=O)NCC(=O)N2CCC[C@H]2C(=O)N[C@H](Cc2ccccc2)C(=O)N[C@H](C)C(=O)N[C@H](Cc2ccccc2)C(=O)O)NC(=O)[C@H](CO)NC(=O)[C@H](CC(C)C)NC(=O)[C@H](CCCNC(=N)N)NC(=O)[C@@H]2CCCN2C(=O)[C@H](CCCNC(=N)N)NC1=O
B9: Ac-C*-R-P-R-L-S-c*-K-G-P-Nle-P-F-OH (peptide)
peptide: Ac-CRPRLS[dC]KGP[Nle]PF-OH
modifications: disulfide 1-7
SMILES: CCCC[C@H](NC(=O)[C@@H]1CCCN1C(=O)CNC(=O)[C@H](CCCCN)NC(=O)[C@H]1CSSC[C@H](NC(C)=O)C(=O)N[C@@H](CCCNC(=N)N)C(=O)N2CCC[C@H]2C(=O)N[C@@H](CCCNC(=N)N)C(=O)N[C@@H](CC(C)C)C(=O)N[C@@H](CO)C(=O)N1)C(=O)N1CCC[C@H]1C(=O)N[C@@H](Cc1ccccc1)C(=O)O
B10: Ac-c-R-P-R-L-S-(hC)-K-G-P-(D-Nle)-a-f-OH (peptide)
peptide: Ac-[dC]RPRLS[hCys]KGP[dNle][dA][dF]-OH
modifications: not fully specified; printed as Ac-c-R-P-R-L-S-(hC)-K-G-P-(D-Nle)-a-f-OH; cysteine pairing not given here
B11: pE-R-C*-R-L-S-C*-F-G-P-(D-Nle)-a-f-OH (peptide)
peptide: [pGlu]RCRLSCFGP[dNle][dA][dF]-OH
modifications: disulfide 3-7
SMILES: CCCC[C@@H](NC(=O)[C@@H]1CCCN1C(=O)CNC(=O)[C@H](Cc1ccccc1)NC(=O)[C@@H]1CSSC[C@H](NC(=O)[C@H](CCCNC(=N)N)NC(=O)[C@@H]2CCC(=O)N2)C(=O)N[C@@H](CCCNC(=N)N)C(=O)N[C@@H](CC(C)C)C(=O)N[C@@H](CO)C(=O)N1)C(=O)N[C@H](C)C(=O)N[C@H](Cc1ccccc1)C(=O)O
B12: Ac-C*-R-P-R-L-S-C*-K-G-P-Nle-P-f-OH (peptide)
peptide: Ac-CRPRLSCKGP[Nle]P[dF]-OH
modifications: disulfide 1-7
SMILES: CCCC[C@H](NC(=O)[C@@H]1CCCN1C(=O)CNC(=O)[C@H](CCCCN)NC(=O)[C@@H]1CSSC[C@H](NC(C)=O)C(=O)N[C@@H](CCCNC(=N)N)C(=O)N2CCC[C@H]2C(=O)N[C@@H](CCCNC(=N)N)C(=O)N[C@@H](CC(C)C)C(=O)N[C@@H](CO)C(=O)N1)C(=O)N1CCC[C@H]1C(=O)N[C@H](Cc1ccccc1)C(=O)O
B13: pE-R-C*-R-L-S-C*-K-a-P-(D-Nle)-a-f-OH (peptide)
peptide: [pGlu]RCRLSCK[dA]P[dNle][dA][dF]-OH
modifications: disulfide 3-7
SMILES: CCCC[C@@H](NC(=O)[C@@H]1CCCN1C(=O)[C@@H](C)NC(=O)[C@H](CCCCN)NC(=O)[C@@H]1CSSC[C@H](NC(=O)[C@H](CCCNC(=N)N)NC(=O)[C@@H]2CCC(=O)N2)C(=O)N[C@@H](CCCNC(=N)N)C(=O)N[C@@H](CC(C)C)C(=O)N[C@@H](CO)C(=O)N1)C(=O)N[C@H](C)C(=O)N[C@H](Cc1ccccc1)C(=O)O
B14: Ac-C*-R-P-R-L-S-C*-K-G-P-Nle-P-F-OH (peptide)
peptide: Ac-CRPRLSCKGP[Nle]PF-OH
modifications: disulfide 1-7
SMILES: CCCC[C@H](NC(=O)[C@@H]1CCCN1C(=O)CNC(=O)[C@H](CCCCN)NC(=O)[C@@H]1CSSC[C@H](NC(C)=O)C(=O)N[C@@H](CCCNC(=N)N)C(=O)N2CCC[C@H]2C(=O)N[C@@H](CCCNC(=N)N)C(=O)N[C@@H](CC(C)C)C(=O)N[C@@H](CO)C(=O)N1)C(=O)N1CCC[C@H]1C(=O)N[C@@H](Cc1ccccc1)C(=O)O
B15: Ac-c*-R-P-R-L-S-hC*-K-G-P-Nle-P-F-OH (peptide)
peptide: Ac-[dC]RPRLS[hCys]KGP[Nle]PF-OH
modifications: disulfide 1-7
SMILES: CCCC[C@H](NC(=O)[C@@H]1CCCN1C(=O)CNC(=O)[C@H](CCCCN)NC(=O)[C@@H]1CCSSC[C@@H](NC(C)=O)C(=O)N[C@@H](CCCNC(=N)N)C(=O)N2CCC[C@H]2C(=O)N[C@@H](CCCNC(=N)N)C(=O)N[C@@H](CC(C)C)C(=O)N[C@@H](CO)C(=O)N1)C(=O)N1CCC[C@H]1C(=O)N[C@@H](Cc1ccccc1)C(=O)O
B16: Ac-c*-R-P-R-L-S-C*-K-G-P-Nle-P-F-OH (peptide)
peptide: Ac-[dC]RPRLSCKGP[Nle]PF-OH
modifications: disulfide 1-7
SMILES: CCCC[C@H](NC(=O)[C@@H]1CCCN1C(=O)CNC(=O)[C@H](CCCCN)NC(=O)[C@@H]1CSSC[C@@H](NC(C)=O)C(=O)N[C@@H](CCCNC(=N)N)C(=O)N2CCC[C@H]2C(=O)N[C@@H](CCCNC(=N)N)C(=O)N[C@@H](CC(C)C)C(=O)N[C@@H](CO)C(=O)N1)C(=O)N1CCC[C@H]1C(=O)N[C@@H](Cc1ccccc1)C(=O)O
B17: pE-R-C*-R-L-S-C*-K-G-P-Nle-P-F-OH (peptide)
peptide: [pGlu]RCRLSCKGP[Nle]PF-OH
modifications: disulfide 3-7
SMILES: CCCC[C@H](NC(=O)[C@@H]1CCCN1C(=O)CNC(=O)[C@H](CCCCN)NC(=O)[C@@H]1CSSC[C@H](NC(=O)[C@H](CCCNC(=N)N)NC(=O)[C@@H]2CCC(=O)N2)C(=O)N[C@@H](CCCNC(=N)N)C(=O)N[C@@H](CC(C)C)C(=O)N[C@@H](CO)C(=O)N1)C(=O)N1CCC[C@H]1C(=O)N[C@@H](Cc1ccccc1)C(=O)O

The test addresses T1, human APJ receptor (hAPJ). The test is described as follows: cell-based or functional assay.
For the molecule B1, the “hAPJ Ca^2+ Flux EC50” value came out at 48.7 nM.
For the molecule B2, the “hAPJ Ca^2+ Flux EC50” value is 32.2 nM.
As for B3, the “hAPJ Ca^2+ Flux EC50” value was 410 nM.
Turning to Ac-CRPRLSCKGP[Nle]P-NHPhenethyl (disulfide 1-7) [Ac-C*-R-P-R-L-S-C*-K-G-P-Nle-P-NH(Phenethyl)], the “hAPJ Ca^2+ Flux EC50” value amounted to 3.2 nM.
Consider B4, for which the “hAPJ Ca^2+ Flux EC50” value turned out to be 14.1 nM.
For the molecule B5, the “hAPJ Ca^2+ Flux EC50” value amounted to 85.8 nM.
As for B6, the figure is 2.9 nM; as for B7, 227 nM; as for B8, 174 nM.
With B9, the “hAPJ Ca^2+ Flux EC50” value came to 194 nM.
For B10, the “hAPJ Ca^2+ Flux EC50” value is 79.3 nM.
For the molecule B11, the “hAPJ Ca^2+ Flux EC50” value was 3.3 nM.
As for B12, the figure is 46.9 nM; as for B13, 72.2 nM.
Take B14: the “hAPJ Ca^2+ Flux EC50” value worked out at 9.4 nM.
As for B15, the figure is 12.2 nM; as for B16, 21.4 nM; as for B17, 1 nM.
